Laboratory results from US20140105889A1 (published 2014).

T1: human FcγRIIa type R (human, UniProt P12318 36-217)
T1 construct: also called FcgRIIaR; FcγRIIa(R)
T1 chain: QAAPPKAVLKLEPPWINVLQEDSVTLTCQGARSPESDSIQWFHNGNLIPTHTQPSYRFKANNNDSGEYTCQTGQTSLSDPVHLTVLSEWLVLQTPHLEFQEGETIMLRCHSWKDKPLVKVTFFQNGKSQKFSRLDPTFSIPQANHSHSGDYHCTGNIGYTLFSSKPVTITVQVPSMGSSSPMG

T2: human FcγRIIa type H (human, UniProt P12318 36-217)
T2 construct: also called FcgRIIaH; FcγRIIa(H)
T2 sequence: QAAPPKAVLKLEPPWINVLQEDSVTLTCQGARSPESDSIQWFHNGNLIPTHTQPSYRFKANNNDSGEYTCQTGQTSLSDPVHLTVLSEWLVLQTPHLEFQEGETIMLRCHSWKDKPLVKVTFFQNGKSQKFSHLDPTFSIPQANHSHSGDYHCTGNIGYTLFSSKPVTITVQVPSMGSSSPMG

T3: human FcγRIIb (human, UniProt P31994 43-217)
T3 construct: also called FcgRIIb; FcγIIB
T3 sequence: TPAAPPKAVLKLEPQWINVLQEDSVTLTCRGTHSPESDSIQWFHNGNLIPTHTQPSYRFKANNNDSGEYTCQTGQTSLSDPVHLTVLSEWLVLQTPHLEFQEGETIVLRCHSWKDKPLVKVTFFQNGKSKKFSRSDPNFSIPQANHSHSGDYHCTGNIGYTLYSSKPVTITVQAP


Legend:
Assay in all cases: SPR (Biacore), FcγR over captured antibody; binding amount / that of IL6R-BF648/IL6R-L x100
human FcγRIa = target: T4, human FcγRIa (human, UniProt P12314 16-292, limits assumed)
T4 construct: also called FcgRIa; CD64
Method: (§1) According to the following method, relative binding activities were calculated for the results of analyzing interactions with the respective FcγRs.

human FcγRIIa type R = target: T1, human FcγRIIa type R
Method: as §1

human FcγRIIa type H = target: T2, human FcγRIIa type H
Method: as §1

human FcγRIIIa type V = target: T5, human FcγRIIIa type V (human, UniProt P08637 17-208, limits assumed)
T5 construct: Allotype V158 was used; also called FcgRIIIaV; FcγRIIIa(V)
Method: as §1

human FcγRIIb = target: T3, human FcγRIIb
Method: as §1

T4 sequence (P12314 16-292 limits assumed): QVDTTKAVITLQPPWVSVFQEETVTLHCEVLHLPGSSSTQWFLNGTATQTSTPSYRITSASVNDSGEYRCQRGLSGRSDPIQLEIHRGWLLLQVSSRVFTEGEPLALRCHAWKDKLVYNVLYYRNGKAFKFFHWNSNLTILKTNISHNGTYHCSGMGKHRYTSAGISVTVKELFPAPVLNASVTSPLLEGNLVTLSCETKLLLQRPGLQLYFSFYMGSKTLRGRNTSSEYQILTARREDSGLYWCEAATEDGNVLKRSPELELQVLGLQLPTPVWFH
T5 sequence (P08637 other isoform, or with tags, fused parts or gaps limits assumed): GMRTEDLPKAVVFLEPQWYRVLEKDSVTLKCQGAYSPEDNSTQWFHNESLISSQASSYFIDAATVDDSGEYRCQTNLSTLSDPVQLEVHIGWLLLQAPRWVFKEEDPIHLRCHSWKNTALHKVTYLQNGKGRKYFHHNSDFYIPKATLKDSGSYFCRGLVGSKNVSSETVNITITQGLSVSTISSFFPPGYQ

Binder	relative binding activity (human FcγRIa)	relative binding activity (human FcγRIIa type R)	relative binding activity (human FcγRIIa type H)	relative binding activity (human FcγRIIIa type V)	relative binding activity (human FcγRIIb)
IL6R-BP130/IL6R-L (antibody, human IgG1) heavy: QVQLQESGPGLVKPSETLSLTCAVSGHSISHDHAWSWVRQPPGEGLEWIGFISYSGITNYNPSLQGRVTISRDNSKNTLYLQMNSLRAEDTAVYYCARSLARTTAMDYWGEGTLVTVSSASTKGPSVFPLAPSSKSTSGGTAALGCLVKDYFPEPVTVSWNSGALTSGVHTFPAVLQSSGLYSLSSVVTVPSSSLGTQTYICNVNHKPSNTKVDKKVEPKSCDKTHTCPPCPAPDLLGGDSVFLFPPKPKDTLMISRTPEVTCVVVDVSHEDPEVKFNWYVDGVEVHNAKTKPREEQYNSTYRVVSVLTVLHQDWLNGKEYKCKMSNKALPKPIEKTISKAKGQPREPQVYTLPPSRDELTKNQVSLTCLVKGFYPSDIAVEWESNGQPENNYKTTPPVLDSDGSFFLYSKLTVDKSRWQQGNVFSCSVMHEALHNHYTQESLSLSP light: DIQMTQSPSSLSASVGDRVTITCRASQDISSYLNWYQQKPGKAPKLLIYYTSRLHSGVPSRFSGSGSGTDFTFTISSLQPEDIATYYCQQGNTLPYTFGQGTKVEIK	104 % of IL6R-BF648/IL6R-L	272 % of IL6R-BF648/IL6R-L	224 % of IL6R-BF648/IL6R-L	–	–
IL6R-BP151/IL6R-L (antibody, human IgG1) heavy: QVQLQESGPGLVKPSETLSLTCAVSGHSISHDHAWSWVRQPPGEGLEWIGFISYSGITNYNPSLQGRVTISRDNSKNTLYLQMNSLRAEDTAVYYCARSLARTTAMDYWGEGTLVTVSSASTKGPSVFPLAPSSKSTSGGTAALGCLVKDYFPEPVTVSWNSGALTSGVHTFPAVLQSSGLYSLSSVVTVPSSSLGTQTYICNVNHKPSNTKVDKKVEPKSCDKTHTCPPCPAPDYLGDDSVFLFPPKPKDTLMISRTPEVTCVVVDVSHEDPEVKFNWYVDGVEVHNAKTKPREEQYNSTYRVVSVLTVLHQDWLNGKEYKCKVSNAALPRPIEKTISKAKGQPREPQVYTLPPSRDELTKNQVSLTCLVKGFYPSDIAVEWESNGQPENNYKTTPPVLDSDGSFFLYSKLTVDKSRWQQGNVFSCSVMHEALHNHYTQESLSLSP light: DIQMTQSPSSLSASVGDRVTITCRASQDISSYLNWYQQKPGKAPKLLIYYTSRLHSGVPSRFSGSGSGTDFTFTISSLQPEDIATYYCQQGNTLPYTFGQGTKVEIK	39 % of IL6R-BF648/IL6R-L	705 % of IL6R-BF648/IL6R-L	621 % of IL6R-BF648/IL6R-L	221 % of IL6R-BF648/IL6R-L	–
IL6R-BP146/IL6R-L (antibody, human IgG1) heavy: QVQLQESGPGLVKPSETLSLTCAVSGHSISHDHAWSWVRQPPGEGLEWIGFISYSGITNYNPSLQGRVTISRDNSKNTLYLQMNSLRAEDTAVYYCARSLARTTAMDYWGEGTLVTVSSASTKGPSVFPLAPSSKSTSGGTAALGCLVKDYFPEPVTVSWNSGALTSGVHTFPAVLQSSGLYSLSSVVTVPSSSLGTQTYICNVNHKPSNTKVDKKVEPKSCDKTHTCPPCPAPEYLGDDSVFLFPPKPKDTLMISRTPEVTCVVVDVSHEDPEVKFNWYVDGVEVHNAKTKPREEQYNSTYRVVSVLTVLHQDWLNGKEYKCKVSNAALPAPIEKTISKAKGQPREPQVYTLPPSRDELTKNQVSLTCLVKGFYPSDIAVEWESNGQPENNYKTTPPVLDSDGSFFLYSKLTVDKSRWQQGNVFSCSVMHEALHNHYTQESLSLSP light: DIQMTQSPSSLSASVGDRVTITCRASQDISSYLNWYQQKPGKAPKLLIYYTSRLHSGVPSRFSGSGSGTDFTFTISSLQPEDIATYYCQQGNTLPYTFGQGTKVEIK	–	445 % of IL6R-BF648/IL6R-L	203 % of IL6R-BF648/IL6R-L	–	156 % of IL6R-BF648/IL6R-L
IL6R-BP131/IL6R-L (antibody, human IgG1) heavy: QVQLQESGPGLVKPSETLSLTCAVSGHSISHDHAWSWVRQPPGEGLEWIGFISYSGITNYNPSLQGRVTISRDNSKNTLYLQMNSLRAEDTAVYYCARSLARTTAMDYWGEGTLVTVSSASTKGPSVFPLAPSSKSTSGGTAALGCLVKDYFPEPVTVSWNSGALTSGVHTFPAVLQSSGLYSLSSVVTVPSSSLGTQTYICNVNHKPSNTKVDKKVEPKSCDKTHTCPPCPAPDLLGDDSVFLFPPKPKDTLMISRTPEVTCVVVDVSHEDPEVKFNWYVDGVEVHNAKTKPREEQYNSTYRVVSVLTVLHQDWLNGKEYKCKVSNKALPKPIEKTISKAKGQPREPQVYTLPPSRDELTKNQVSLTCLVKGFYPSDIAVEWESNGQPENNYKTTPPVLDSDGSFFLYSKLTVDKSRWQQGNVFSCSVMHEALHNHYTQESLSLSP light: DIQMTQSPSSLSASVGDRVTITCRASQDISSYLNWYQQKPGKAPKLLIYYTSRLHSGVPSRFSGSGSGTDFTFTISSLQPEDIATYYCQQGNTLPYTFGQGTKVEIK	33 % of IL6R-BF648/IL6R-L	364 % of IL6R-BF648/IL6R-L	253 % of IL6R-BF648/IL6R-L	118 % of IL6R-BF648/IL6R-L	–

The remaining lines, values ahead:

relative binding activity (human FcγRIa)	relative binding activity (human FcγRIIa type R)	relative binding activity (human FcγRIIa type H)	relative binding activity (human FcγRIIIa type V)	relative binding activity (human FcγRIIb)	Binder
108 % of IL6R-BF648/IL6R-L	362 % of IL6R-BF648/IL6R-L	150 % of IL6R-BF648/IL6R-L	122 % of IL6R-BF648/IL6R-L	–	IL6R-BP181/IL6R-L (antibody, human IgG1) heavy: QVQLQESGPGLVKPSETLSLTCAVSGHSISHDHAWSWVRQPPGEGLEWIGFISYSGITNYNPSLQGRVTISRDNSKNTLYLQMNSLRAEDTAVYYCARSLARTTAMDYWGEGTLVTVSSASTKGPSVFPLAPSSKSTSGGTAALGCLVKDYFPEPVTVSWNSGALTSGVHTFPAVLQSSGLYSLSSVVTVPSSSLGTQTYICNVNHKPSNTKVDKKVEPKSCDKTHTCPPCPAPDLLGGDSVFLFPPKPKDTLMISRTPEVTCVVVDVSHEDGEVKFNWYVDGVEVHNAKTKPREEQYNSTYRVVSVLTVLHQDWLNGKEYKCKVSNAALPKPIEKTISKAKGQPREPQVYTLPPSRDELTKNQVSLTCLVKGFYPSDIAVEWESNGQPENNYKTTPPVLDSDGSFFLYSKLTVDKSRWQQGNVFSCSVMHEALHNHYTQESLSLSP light: DIQMTQSPSSLSASVGDRVTITCRASQDISSYLNWYQQKPGKAPKLLIYYTSRLHSGVPSRFSGSGSGTDFTFTISSLQPEDIATYYCQQGNTLPYTFGQGTKVEIK
51 % of IL6R-BF648/IL6R-L	653 % of IL6R-BF648/IL6R-L	259 % of IL6R-BF648/IL6R-L	–	179 % of IL6R-BF648/IL6R-L	IL6R-BP178/IL6R-L (antibody, human IgG1) heavy: QVQLQESGPGLVKPSETLSLTCAVSGHSISHDHAWSWVRQPPGEGLEWIGFISYSGITNYNPSLQGRVTISRDNSKNTLYLQMNSLRAEDTAVYYCARSLARTTAMDYWGEGTLVTVSSASTKGPSVFPLAPSSKSTSGGTAALGCLVKDYFPEPVTVSWNSGALTSGVHTFPAVLQSSGLYSLSSVVTVPSSSLGTQTYICNVNHKPSNTKVDKKVEPKSCDKTHTCPPCPAPDLLGDDSVFLFPPKPKDTLMISRTPEVTCVVVDVSHEDGEVKFNWYVDGVEVHNAKTKPREEQYNSTYRVVSVLTVLHQDWLNGKEYKCKVSNKALPKPIEKTISKAKGQPREPQVYTLPPSRDELTKNQVSLTCLVKGFYPSDIAVEWESNGQPENNYKTTPPVLDSDGSFFLYSKLTVDKSRWQQGNVFSCSVMHEALHNHYTQESLSLSP light: DIQMTQSPSSLSASVGDRVTITCRASQDISSYLNWYQQKPGKAPKLLIYYTSRLHSGVPSRFSGSGSGTDFTFTISSLQPEDIATYYCQQGNTLPYTFGQGTKVEIK
102 % of IL6R-BF648/IL6R-L	201 % of IL6R-BF648/IL6R-L	128 % of IL6R-BF648/IL6R-L	–	147 % of IL6R-BF648/IL6R-L	IL6R-BP176/IL6R-L (antibody, human IgG1) heavy: QVQLQESGPGLVKPSETLSLTCAVSGHSISHDHAWSWVRQPPGEGLEWIGFISYSGITNYNPSLQGRVTISRDNSKNTLYLQMNSLRAEDTAVYYCARSLARTTAMDYWGEGTLVTVSSASTKGPSVFPLAPSSKSTSGGTAALGCLVKDYFPEPVTVSWNSGALTSGVHTFPAVLQSSGLYSLSSVVTVPSSSLGTQTYICNVNHKPSNTKVDKKVEPKSCDKTHTCPPCPAPDLLGGDSVFLFPPKPKDTLMISRTPEVTCVVVDVSHEDPEVKFNWYVDGVEVHNAKTKPREEQYNSTYRVVSVLTVLHQDWLNGKEYKCKVSNDALPKPIEKTISKAKGQPREPQVYTLPPSRDELTKNQVSLTCLVKGFYPSDIAVEWESNGQPENNYKTTPPVLDSDGSFFLYSKLTVDKSRWQQGNVFSCSVMHEALHNHYTQESLSLSP light: DIQMTQSPSSLSASVGDRVTITCRASQDISSYLNWYQQKPGKAPKLLIYYTSRLHSGVPSRFSGSGSGTDFTFTISSLQPEDIATYYCQQGNTLPYTFGQGTKVEIK
34 % of IL6R-BF648/IL6R-L	638 % of IL6R-BF648/IL6R-L	548 % of IL6R-BF648/IL6R-L	–	178 % of IL6R-BF648/IL6R-L	IL6R-BP152/IL6R-L (antibody, human IgG1) heavy: QVQLQESGPGLVKPSETLSLTCAVSGHSISHDHAWSWVRQPPGEGLEWIGFISYSGITNYNPSLQGRVTISRDNSKNTLYLQMNSLRAEDTAVYYCARSLARTTAMDYWGEGTLVTVSSASTKGPSVFPLAPSSKSTSGGTAALGCLVKDYFPEPVTVSWNSGALTSGVHTFPAVLQSSGLYSLSSVVTVPSSSLGTQTYICNVNHKPSNTKVDKKVEPKSCDKTHTCPPCPAPDYLGDDSVFLFPPKPKDTLMISRTPEVTCVVVDVSHEDPEVKFNWYVDGVEVHNAKTKPREEQDNSTYRVVSVLTVLHQDWLNGKEYKCKVSNAALPRPIEKTISKAKGQPREPQVYTLPPSRDELTKNQVSLTCLVKGFYPSDIAVEWESNGQPENNYKTTPPVLDSDGSFFLYSKLTVDKSRWQQGNVFSCSVMHEALHNHYTQESLSLSP light: DIQMTQSPSSLSASVGDRVTITCRASQDISSYLNWYQQKPGKAPKLLIYYTSRLHSGVPSRFSGSGSGTDFTFTISSLQPEDIATYYCQQGNTLPYTFGQGTKVEIK
